Results taken from patent US20190142860A1, “NUCLEIC ACID BASED TIA-1 INHIBITORS” (Aquinnah Pharmaceuticals, Inc., priority 2015, published 2019).

Columns and labels:
[1] = test system: granules positive for TIA1 and phospho-tau (P-S396/404, PHF1); assay: Tau kinase inhibitor study: TIA1+ SGs and PHF1+ tau granules; assay type: cell-based, mouse; settings: HT22 cells, TIA1 and WT tau, 24 hrs; XXVI 20 μM, CDK2/5 inhibitor 5 μM, SB203580 20 μM, 39621 20 μM, PP2 20 nM
[2] = target: Nucleolysin TIA-1 (endogenous mouse TIA1) (mouse) (UniProt P52912); assay: TIA1 IP-MS, WT1 cortex
[3] = target: Nucleolysin TIA-1 (endogenous mouse TIA1) (mouse) (UniProt P52912); assay: TIA1 IP-MS, WT2 cortex
[4] = target: Nucleolysin TIA-1 (endogenous mouse TIA1) (mouse) (UniProt P52912); assay: TIA1 IP-MS, WT3 cortex
[5] = target: Nucleolysin TIA-1 (endogenous mouse TIA1) (mouse) (UniProt P52912); assay: TIA1 IP-MS, tau KO 1 cortex
[6] = target: Nucleolysin TIA-1 (endogenous mouse TIA1) (mouse) (UniProt P52912); assay: TIA1 IP-MS, tau KO 2 cortex
[7] = target: Nucleolysin TIA-1 (endogenous mouse TIA1) (mouse) (UniProt P52912); assay: TIA1 IP-MS, tau KO 3 cortex

Sequence of UniProt P52912 (P52912 whole entry): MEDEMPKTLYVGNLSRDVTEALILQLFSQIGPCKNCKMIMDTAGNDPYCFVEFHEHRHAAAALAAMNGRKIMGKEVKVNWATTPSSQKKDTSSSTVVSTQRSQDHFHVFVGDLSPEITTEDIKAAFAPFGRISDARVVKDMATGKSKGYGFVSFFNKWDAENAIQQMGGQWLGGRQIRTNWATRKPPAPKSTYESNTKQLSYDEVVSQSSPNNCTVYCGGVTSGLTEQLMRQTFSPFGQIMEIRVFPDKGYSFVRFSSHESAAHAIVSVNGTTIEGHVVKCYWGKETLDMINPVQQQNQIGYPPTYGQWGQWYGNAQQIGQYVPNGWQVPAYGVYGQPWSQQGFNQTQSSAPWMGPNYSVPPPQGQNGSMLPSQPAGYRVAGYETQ

CC(C)(C)n1nc(-c2ccc(Cl)cc2)c2c(N)ncnc21 [PP2]
formation of granules positive for TIA1 and phospho-tau (SGs and tau granules) [1]: inhibition of SGs and tau granules

Sodium/potassium-transporting ATPase subunit beta-2 (from UniProt P14231 1-290)
total ion current (normalized to TIA1 = 1000) [2]: 0 | total ion current (normalized to TIA1 = 1000) [3]: 15.1 | total ion current (normalized to TIA1 = 1000) [4]: 25.3 | total ion current (normalized to TIA1 = 1000) [5]: 0 | total ion current (normalized to TIA1 = 1000) [6]: 30.7 | total ion current (normalized to TIA1 = 1000) [7]: 0

Solute carrier family 2, facilitated glucose transporter member 3 (from UniProt P32037 1-493)
total ion current (normalized to TIA1 = 1000) [2]: 0 | total ion current (normalized to TIA1 = 1000) [3]: 107 | total ion current (normalized to TIA1 = 1000) [4]: 190 | total ion current (normalized to TIA1 = 1000) [5]: 0 | total ion current (normalized to TIA1 = 1000) [6]: 90.2 | total ion current (normalized to TIA1 = 1000) [7]: 0

Sorting and assembly machinery component 50 homolog (from UniProt Q8BGH2 1-469)
total ion current (normalized to TIA1 = 1000) [2]: 0 | total ion current (normalized to TIA1 = 1000) [3]: 22.7 | total ion current (normalized to TIA1 = 1000) [4]: 0 | total ion current (normalized to TIA1 = 1000) [5]: 0 | total ion current (normalized to TIA1 = 1000) [6]: 0 | total ion current (normalized to TIA1 = 1000) [7]: 0

Splicing factor 45 (from UniProt Q8JZX4 2-405)
total ion current (normalized to TIA1 = 1000) [2]: 1.59 | total ion current (normalized to TIA1 = 1000) [3]: 0 | total ion current (normalized to TIA1 = 1000) [4]: 0 | total ion current (normalized to TIA1 = 1000) [5]: 0 | total ion current (normalized to TIA1 = 1000) [6]: 0 | total ion current (normalized to TIA1 = 1000) [7]: 0

Splicing factor U2AF 65 kDa subunit (from UniProt P26369 2-475)
total ion current (normalized to TIA1 = 1000) [2]: 0 | total ion current (normalized to TIA1 = 1000) [3]: 162 | total ion current (normalized to TIA1 = 1000) [4]: 0 | total ion current (normalized to TIA1 = 1000) [5]: 0 | total ion current (normalized to TIA1 = 1000) [6]: 107 | total ion current (normalized to TIA1 = 1000) [7]: 0

Stress-70 protein, mitochondrial (from UniProt P38647 47-679)
total ion current (normalized to TIA1 = 1000) [2]: 0 | total ion current (normalized to TIA1 = 1000) [3]: 173 | total ion current (normalized to TIA1 = 1000) [4]: 77.5 | total ion current (normalized to TIA1 = 1000) [5]: 0 | total ion current (normalized to TIA1 = 1000) [6]: 101 | total ion current (normalized to TIA1 = 1000) [7]: 0

Succinyl-CoA ligase [ADP-forming] subunit beta, mitochondrial (from UniProt Q9Z2I9 54-463)
total ion current (normalized to TIA1 = 1000) [2]: 0 | total ion current (normalized to TIA1 = 1000) [3]: 61.7 | total ion current (normalized to TIA1 = 1000) [4]: 86.3 | total ion current (normalized to TIA1 = 1000) [5]: 0 | total ion current (normalized to TIA1 = 1000) [6]: 49 | total ion current (normalized to TIA1 = 1000) [7]: 0

Succinyl-CoA ligase [ADP/GDP-forming] subunit alpha, mitochondrial (from UniProt Q9WUM5 35-346)
total ion current (normalized to TIA1 = 1000) [2]: 0 | total ion current (normalized to TIA1 = 1000) [3]: 204 | total ion current (normalized to TIA1 = 1000) [4]: 54.8 | total ion current (normalized to TIA1 = 1000) [5]: 0 | total ion current (normalized to TIA1 = 1000) [6]: 26.9 | total ion current (normalized to TIA1 = 1000) [7]: 0

Synaptosomal-associated protein 25 (from UniProt P60879 1-206)
total ion current (normalized to TIA1 = 1000) [2]: 0 | total ion current (normalized to TIA1 = 1000) [3]: 165 | total ion current (normalized to TIA1 = 1000) [4]: 0 | total ion current (normalized to TIA1 = 1000) [5]: 0 | total ion current (normalized to TIA1 = 1000) [6]: 138 | total ion current (normalized to TIA1 = 1000) [7]: 0

Syntaxin-1B (from UniProt P61264 1-288)
total ion current (normalized to TIA1 = 1000) [2]: 0 | total ion current (normalized to TIA1 = 1000) [3]: 99.7 | total ion current (normalized to TIA1 = 1000) [4]: 0 | total ion current (normalized to TIA1 = 1000) [5]: 0 | total ion current (normalized to TIA1 = 1000) [6]: 26.9 | total ion current (normalized to TIA1 = 1000) [7]: 0

Thy-1 membrane glycoprotein (from UniProt P01831 20-131)
total ion current (normalized to TIA1 = 1000) [2]: 0 | total ion current (normalized to TIA1 = 1000) [3]: 75.2 | total ion current (normalized to TIA1 = 1000) [4]: 57.7 | total ion current (normalized to TIA1 = 1000) [5]: 0 | total ion current (normalized to TIA1 = 1000) [6]: 0 | total ion current (normalized to TIA1 = 1000) [7]: 0

Transcriptional activator protein Pur-alpha (from UniProt P42669 2-321)
total ion current (normalized to TIA1 = 1000) [2]: 0 | total ion current (normalized to TIA1 = 1000) [3]: 264 | total ion current (normalized to TIA1 = 1000) [4]: 269 | total ion current (normalized to TIA1 = 1000) [5]: 0 | total ion current (normalized to TIA1 = 1000) [6]: 39.7 | total ion current (normalized to TIA1 = 1000) [7]: 0

Transformer-2 protein homolog beta (from UniProt P62996 2-288)
total ion current (normalized to TIA1 = 1000) [2]: 0 | total ion current (normalized to TIA1 = 1000) [3]: 70.9 | total ion current (normalized to TIA1 = 1000) [4]: 0 | total ion current (normalized to TIA1 = 1000) [5]: 0 | total ion current (normalized to TIA1 = 1000) [6]: 33.3 | total ion current (normalized to TIA1 = 1000) [7]: 0

Tripartite motif-containing protein 2 (from UniProt Q9ESN6 1-744)
total ion current (normalized to TIA1 = 1000) [2]: 0 | total ion current (normalized to TIA1 = 1000) [3]: 106 | total ion current (normalized to TIA1 = 1000) [4]: 0 | total ion current (normalized to TIA1 = 1000) [5]: 0 | total ion current (normalized to TIA1 = 1000) [6]: 0 | total ion current (normalized to TIA1 = 1000) [7]: 0

Tubulin polymerization-promoting protein (from UniProt Q7TQD2 1-218)
total ion current (normalized to TIA1 = 1000) [2]: 0 | total ion current (normalized to TIA1 = 1000) [3]: 299 | total ion current (normalized to TIA1 = 1000) [4]: 220 | total ion current (normalized to TIA1 = 1000) [5]: 0 | total ion current (normalized to TIA1 = 1000) [6]: 40.4 | total ion current (normalized to TIA1 = 1000) [7]: 0

U1 small nuclear ribonucleoprotein 70 kDa (from UniProt Q62376 2-448)
total ion current (normalized to TIA1 = 1000) [2]: 6.22 | total ion current (normalized to TIA1 = 1000) [3]: 0 | total ion current (normalized to TIA1 = 1000) [4]: 0 | total ion current (normalized to TIA1 = 1000) [5]: 0 | total ion current (normalized to TIA1 = 1000) [6]: 0 | total ion current (normalized to TIA1 = 1000) [7]: 0

Ubiquitin thioesterase OTUB1 (from UniProt Q7TQI3 2-271)
total ion current (normalized to TIA1 = 1000) [2]: 0 | total ion current (normalized to TIA1 = 1000) [3]: 80.5 | total ion current (normalized to TIA1 = 1000) [4]: 45.6 | total ion current (normalized to TIA1 = 1000) [5]: 0 | total ion current (normalized to TIA1 = 1000) [6]: 16.9 | total ion current (normalized to TIA1 = 1000) [7]: 0

V-type proton ATPase catalytic subunit A (from UniProt P50516 1-617)
total ion current (normalized to TIA1 = 1000) [2]: 0 | total ion current (normalized to TIA1 = 1000) [3]: 319 | total ion current (normalized to TIA1 = 1000) [4]: 71.9 | total ion current (normalized to TIA1 = 1000) [5]: 0 | total ion current (normalized to TIA1 = 1000) [6]: 214 | total ion current (normalized to TIA1 = 1000) [7]: 0

V-type proton ATPase subunit H (from UniProt Q8BVE3 1-483)
total ion current (normalized to TIA1 = 1000) [2]: 0 | total ion current (normalized to TIA1 = 1000) [3]: 101 | total ion current (normalized to TIA1 = 1000) [4]: 57.6 | total ion current (normalized to TIA1 = 1000) [5]: 0 | total ion current (normalized to TIA1 = 1000) [6]: 30.3 | total ion current (normalized to TIA1 = 1000) [7]: 0

Vesicular glutamate transporter 1 (from UniProt Q3TXX4 1-560)
total ion current (normalized to TIA1 = 1000) [2]: 0 | total ion current (normalized to TIA1 = 1000) [3]: 141 | total ion current (normalized to TIA1 = 1000) [4]: 0 | total ion current (normalized to TIA1 = 1000) [5]: 130 | total ion current (normalized to TIA1 = 1000) [6]: 64.5 | total ion current (normalized to TIA1 = 1000) [7]: 0
